For test [1], the target named is T1, recombinant human VISTA (His-tagged) (human, UniProt Q9H7M9 33-194).
T1 construct: bought soluble protein (Sino Biological); also called hVISTA; human VISTA polypeptide
Description: antigen-binding ELISA; HMBD-002 10 mg/mL in F9, day 0.

Test [2] addresses T1, recombinant human VISTA (His-tagged). Description: antigen-binding ELISA; HMBD-002 in F1, day 10 at 40°C.
Test [3] shares this target. In words: antigen-binding ELISA; HMBD-002 in F2, day 30 at 40°C. For orientation: ELISA stands for enzyme-linked immunosorbent assay.
Test [4] has the same target. In words: antigen-binding ELISA; HMBD-002 in F3, day 30 at 40°C.
Test [5] concerns the target T2, mouse VISTA expressed on cells (mouse, UniProt Q9D659 33-308).
T2 construct: whole, on cells; also called murine VISTA on transfected cells; VISTA on mouse CD11b+ myeloid cells
T2 sequence (looked up): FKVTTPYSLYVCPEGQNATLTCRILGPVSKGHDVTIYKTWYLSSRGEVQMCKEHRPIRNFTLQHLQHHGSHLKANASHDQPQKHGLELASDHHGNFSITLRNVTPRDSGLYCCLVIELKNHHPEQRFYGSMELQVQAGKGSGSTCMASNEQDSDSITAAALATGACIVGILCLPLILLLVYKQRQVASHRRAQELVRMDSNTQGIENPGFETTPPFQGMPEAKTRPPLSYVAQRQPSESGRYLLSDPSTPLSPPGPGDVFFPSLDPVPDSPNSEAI
Description: flow cytometry, endogenous VISTA on CD11b+ myeloid cells of PBMCs. For orientation: A flow cytometer gives signals particle by particle.
Description: (§1) To identify myeloid cells, PBMCs were further incubated with CD45 FITC and CD11b PE. Cells were washed again and resuspended in 200 μL of FACS flow buffer (PBS with 5 mM EDTA) for flow cytometric analysis using MACSQuant 10 (Miltenyi). After acquisition, all raw data were analyzed using Flowlogic software. Cells were gated using forward and side scatter, and the percentage of positive cells was determined.

Test [6] has as its target T3, rat VISTA expressed on cells (rat, UniProt A0ABK0L5H3 33-310).
T3 construct: whole, on cells; also called rat VISTA on HEK293T cells; VISTA on rat CD11b+ myeloid cells
T3 sequence: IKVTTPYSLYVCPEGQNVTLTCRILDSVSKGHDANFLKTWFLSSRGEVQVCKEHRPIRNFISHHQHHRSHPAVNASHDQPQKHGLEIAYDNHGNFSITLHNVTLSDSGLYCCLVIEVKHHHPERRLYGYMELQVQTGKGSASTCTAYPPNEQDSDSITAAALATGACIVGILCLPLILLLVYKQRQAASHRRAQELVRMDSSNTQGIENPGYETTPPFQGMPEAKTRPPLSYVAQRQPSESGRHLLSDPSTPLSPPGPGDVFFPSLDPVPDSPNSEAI
Described as above.
Description: as §1

Test [7] addresses T1, recombinant human VISTA (His-tagged). Description: ELISA, plate coated with human VISTA.
The next test deals with human PD-1 (human, UniProt Q15116 25-167). In words: ELISA, plate coated with the antigen.
A further test deals with T4, human B7H3 (human, UniProt Q5ZPR3 29-461, limits assumed).
T4 construct: also called CD276
T4 sequence (looked up): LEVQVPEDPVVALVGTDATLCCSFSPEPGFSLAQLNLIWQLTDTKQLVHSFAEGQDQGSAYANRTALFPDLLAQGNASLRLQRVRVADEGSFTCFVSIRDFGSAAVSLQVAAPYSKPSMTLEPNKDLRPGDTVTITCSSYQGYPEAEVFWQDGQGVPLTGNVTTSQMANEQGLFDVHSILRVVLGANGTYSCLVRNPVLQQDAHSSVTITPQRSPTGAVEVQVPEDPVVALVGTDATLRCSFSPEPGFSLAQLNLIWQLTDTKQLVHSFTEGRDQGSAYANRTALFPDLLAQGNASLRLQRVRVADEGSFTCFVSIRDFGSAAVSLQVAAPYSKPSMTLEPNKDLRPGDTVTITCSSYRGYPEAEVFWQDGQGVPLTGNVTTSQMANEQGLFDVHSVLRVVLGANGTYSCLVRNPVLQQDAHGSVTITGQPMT
Description: ELISA, plate coated with the antigen.

The target in a further test is T5, human B7H4 (human, UniProt Q7Z7D3 25-258, limits assumed).
T5 construct: also called VTCN1
T5 sequence (looked up): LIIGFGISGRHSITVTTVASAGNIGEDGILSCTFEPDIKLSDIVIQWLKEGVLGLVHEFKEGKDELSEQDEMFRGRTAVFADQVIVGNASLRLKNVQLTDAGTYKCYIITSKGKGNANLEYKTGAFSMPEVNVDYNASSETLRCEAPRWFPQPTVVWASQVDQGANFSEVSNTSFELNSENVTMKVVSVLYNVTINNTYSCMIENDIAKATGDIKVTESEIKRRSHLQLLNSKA
In words: ELISA, plate coated with the antigen.

The target in another test is T6, human B7H6 (human, UniProt Q68D85 25-262).
T6 construct: also called NCR3LG1
T6 sequence (looked up): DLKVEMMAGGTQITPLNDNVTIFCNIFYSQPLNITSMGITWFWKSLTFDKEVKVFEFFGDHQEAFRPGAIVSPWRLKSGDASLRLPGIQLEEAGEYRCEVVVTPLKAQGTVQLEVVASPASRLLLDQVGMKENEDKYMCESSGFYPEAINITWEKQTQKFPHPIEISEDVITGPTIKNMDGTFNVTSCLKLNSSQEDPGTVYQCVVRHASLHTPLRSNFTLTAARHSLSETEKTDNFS
In words: ELISA, plate coated with the antigen.

The target of another test is T7, human B7H7 (human, UniProt Q9UM44 23-344).
T7 construct: also called HHLA2
T7 sequence (looked up): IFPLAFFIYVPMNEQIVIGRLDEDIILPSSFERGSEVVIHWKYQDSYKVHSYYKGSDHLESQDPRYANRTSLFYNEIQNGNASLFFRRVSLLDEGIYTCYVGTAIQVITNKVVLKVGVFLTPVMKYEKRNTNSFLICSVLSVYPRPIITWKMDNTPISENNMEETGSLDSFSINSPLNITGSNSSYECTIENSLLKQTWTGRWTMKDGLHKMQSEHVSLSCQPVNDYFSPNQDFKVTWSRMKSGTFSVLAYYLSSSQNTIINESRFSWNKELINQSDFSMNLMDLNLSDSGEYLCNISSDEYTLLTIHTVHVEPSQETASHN
In words: ELISA, plate coated with the antigen.

The target in a further test is human CTLA4 (human, UniProt P16410 36-162). Description: ELISA, plate coated with the antigen.

Usually EC50 stands for the concentration needed to bring the measured effect to its halfway point. In general, EC50 (read off the curve) refers to the concentration needed to bring the measured effect to its halfway point.

human PD-1, sequence (Q15116 25-167 limits assumed): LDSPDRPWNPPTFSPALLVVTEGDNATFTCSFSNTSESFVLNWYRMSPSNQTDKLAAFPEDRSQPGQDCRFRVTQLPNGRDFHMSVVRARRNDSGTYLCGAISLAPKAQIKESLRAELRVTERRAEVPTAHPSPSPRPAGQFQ
human CTLA4, sequence (P16410 36-162 limits assumed): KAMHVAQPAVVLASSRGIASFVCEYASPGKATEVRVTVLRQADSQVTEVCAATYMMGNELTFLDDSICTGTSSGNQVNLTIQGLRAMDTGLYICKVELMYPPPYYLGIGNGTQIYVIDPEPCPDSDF

B1: V4-C26 hIgG4 (antibody)
heavy: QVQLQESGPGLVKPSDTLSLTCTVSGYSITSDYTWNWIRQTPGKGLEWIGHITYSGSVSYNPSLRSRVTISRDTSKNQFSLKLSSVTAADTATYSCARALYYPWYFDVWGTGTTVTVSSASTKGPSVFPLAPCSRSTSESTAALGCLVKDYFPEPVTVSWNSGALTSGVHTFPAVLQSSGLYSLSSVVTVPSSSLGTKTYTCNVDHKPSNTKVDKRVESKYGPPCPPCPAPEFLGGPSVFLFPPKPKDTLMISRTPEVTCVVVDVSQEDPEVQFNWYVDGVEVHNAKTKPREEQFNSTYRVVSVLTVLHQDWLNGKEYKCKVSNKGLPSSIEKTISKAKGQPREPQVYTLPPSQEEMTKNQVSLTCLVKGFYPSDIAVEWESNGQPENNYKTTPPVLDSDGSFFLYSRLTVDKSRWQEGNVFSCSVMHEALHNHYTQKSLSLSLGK
light: EIVLTQSPATLSLSPGERATLSCRASSSVGYIHWYQQKPGQAPRPIIYTTSNRATGIPARFSGSGSGTDNTLTISSLEPEDSAVYYCQQWSSYPPITFGGGTKLEVKRTVAAPSVFIFPPSDEQLKSGTASVVCLLNNFYPREAKVQWKVDNALQSGNSQESVTEQDSKDSTYSLSSTLTLSKADYEKHKVYACEVTHQGLSSPVTKSFNRGEC
notes: human IgG4 (S228P)/kappa format; also called HMBD-002; HMBD-002-V4C26
Take B1: the concentration giving a half-maximal response (EC50) in test [1] is 0.0315 nM; in test [2], 0.0306 nM; in test [3] it was 0.0202 nM; in test [4] it was 0.0227 nM; in [5], 111 nM; in test [6], 48.6 nM.

B2: anti-VISTA clone V4-C27 IgG1 (antibody, V domains shown)
VH: QVQLQESGPGLVKPSDTLSLTCTVSGYSITSDYTWNWIRQTPGKGLEWIGHITYSGSVSYNPSLRSRVTISRDTSKNQFSLKLSSVTAADTATYSCARALYYPWYFDVWGTGTTVTVSS
VL: EIVLTQSPATLSLSPGERATLSCRASSSVGYIHWYQQKPGQAPRPLIYATYNRATGIPARFSGSGSGTDNTLTISSLEPEDSAVYYCQQWSSYPPITFGGGTKLEVKR
Take B2: the “EC50 (read off the curve)” value in test [7] was approximately 0.01 nM. In addition, the binding result with human PD-1, in the test with human B7H3, with human B7H4, with human B7H6, with human B7H7 and with human CTLA4 was “no binding (tested: log -7.5 M)” throughout.

(Values after patent publication US20250313631A1 (HUMMINGBIRD BIOSCIENCE PTE, published 2025).)
